Assay results: article PMC9482650, “Quantitative fragmentomics allow affinity mapping of interactomes” (Nature Communications, 2022)

Experiments:
Assay in all cases: holdup assay
Design in all cases: key: below the threshold = too weak to quantify, mostly under pKd 3.1 to 4
[1] = biological target: SCRIB_1, Q14160
[2] = biological target: T1, ARHGAP21, Q5T5U3
T1 sequence (Q5T5U3 45-169, limits assumed, looked up): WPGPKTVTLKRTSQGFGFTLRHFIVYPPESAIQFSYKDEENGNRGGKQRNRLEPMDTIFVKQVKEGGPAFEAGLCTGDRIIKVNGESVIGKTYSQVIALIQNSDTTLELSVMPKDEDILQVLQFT

[3] = biological target: T2, FRMPD1, Q5SYB0
T2 sequence (Q5SYB0 52-145, limits assumed, looked up): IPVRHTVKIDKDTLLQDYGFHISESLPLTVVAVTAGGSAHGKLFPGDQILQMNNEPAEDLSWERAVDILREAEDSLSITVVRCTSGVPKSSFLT

[4] = biological target: DLG2_2, Q15700
Chain of DLG2_2, Q15700 (Q15700 189-283): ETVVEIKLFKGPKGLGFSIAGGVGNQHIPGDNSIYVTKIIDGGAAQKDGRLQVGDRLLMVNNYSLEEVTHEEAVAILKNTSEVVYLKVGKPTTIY

[5] = biological target: MAST2, Q6P0Q8
Chain of MAST2, Q6P0Q8 (Q6P0Q8 1099-1202): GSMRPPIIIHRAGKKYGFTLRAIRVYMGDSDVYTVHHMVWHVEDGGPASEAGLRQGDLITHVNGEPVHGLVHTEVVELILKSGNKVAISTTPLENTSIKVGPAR

[6] = biological target: FRMPD3, Q5JV73
Chain of FRMPD3, Q5JV73 (Q5JV73 12-100): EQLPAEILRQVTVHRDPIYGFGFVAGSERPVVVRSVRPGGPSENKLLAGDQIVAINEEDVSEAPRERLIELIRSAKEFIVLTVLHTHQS

[7] = biological target: Inadl_10, Q8NI35
Chain of Inadl_10, Q8NI35 (Q8NI35 1673-1763): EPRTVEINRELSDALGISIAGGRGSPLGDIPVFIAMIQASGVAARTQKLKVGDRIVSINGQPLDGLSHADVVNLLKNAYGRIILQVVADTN

[8] = biological target: MAGI2_5, Q86UL8
Chain of MAGI2_5, Q86UL8 (Q86UL8 915-1017): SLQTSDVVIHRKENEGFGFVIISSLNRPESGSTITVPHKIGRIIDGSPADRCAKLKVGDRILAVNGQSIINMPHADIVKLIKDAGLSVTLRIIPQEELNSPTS

[9] = biological target: DLG4_1, P78352
Chain of DLG4_1, P78352 (P78352 62-152): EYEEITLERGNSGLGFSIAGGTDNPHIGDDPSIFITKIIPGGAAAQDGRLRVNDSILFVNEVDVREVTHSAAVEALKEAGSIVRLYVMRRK

[10] = biological target: PTPN3, P26045
Chain of PTPN3, P26045 (P26045 505-587): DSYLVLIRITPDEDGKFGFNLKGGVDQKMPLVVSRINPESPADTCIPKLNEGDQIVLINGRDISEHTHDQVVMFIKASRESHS

[11] = biological target: GRASP, Q7Z6J2
Chain of GRASP, Q7Z6J2 (Q7Z6J2 96-193): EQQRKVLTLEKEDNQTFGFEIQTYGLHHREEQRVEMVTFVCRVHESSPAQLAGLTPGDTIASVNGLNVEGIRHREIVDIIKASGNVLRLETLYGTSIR

[12] = biological target: NHERF4_1, Q86UT5-2
Chain of NHERF4_1, Q86UT5-2 (Q86UT5 other isoform, or with tags, fused parts or gaps): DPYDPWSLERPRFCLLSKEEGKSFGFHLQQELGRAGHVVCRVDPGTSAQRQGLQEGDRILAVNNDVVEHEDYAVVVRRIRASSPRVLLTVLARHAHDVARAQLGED

[13] = biological target: T3, LNX2_3, Q8N448
T3 sequence (Q8N448 463-564, limits assumed, looked up): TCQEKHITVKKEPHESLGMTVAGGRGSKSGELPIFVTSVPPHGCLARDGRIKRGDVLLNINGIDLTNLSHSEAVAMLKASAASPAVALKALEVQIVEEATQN

[14] = biological target: MAGI2_6, Q86UL8
Chain of MAGI2_6, Q86UL8 (Q86UL8 1141-1229): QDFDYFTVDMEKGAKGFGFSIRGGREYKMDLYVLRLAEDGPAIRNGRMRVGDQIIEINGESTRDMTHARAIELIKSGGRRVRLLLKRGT

[15] = biological target: T4, CARD11, Q9BXL7
T4 sequence (Q9BXL7 662-765, limits assumed, looked up): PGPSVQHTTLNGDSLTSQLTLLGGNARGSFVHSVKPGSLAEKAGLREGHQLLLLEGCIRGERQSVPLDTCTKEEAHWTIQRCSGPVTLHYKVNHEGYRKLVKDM

[16] = biological target: LDB3, O75112
Chain of LDB3, O75112 (O75112 1-94): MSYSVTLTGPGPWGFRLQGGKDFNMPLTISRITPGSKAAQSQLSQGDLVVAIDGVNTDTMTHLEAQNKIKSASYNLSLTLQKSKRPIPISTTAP

[17] = biological target: MAGI1_1, Q96QZ7
Chain of MAGI1_1, Q96QZ7 (Q96QZ7 1-106): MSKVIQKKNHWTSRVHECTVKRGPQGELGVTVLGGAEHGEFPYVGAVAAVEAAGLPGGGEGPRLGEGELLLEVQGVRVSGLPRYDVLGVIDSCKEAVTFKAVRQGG

[18] = biological target: T5, LIN7A, O14910
T5 sequence (O14910 103-200, limits assumed, looked up): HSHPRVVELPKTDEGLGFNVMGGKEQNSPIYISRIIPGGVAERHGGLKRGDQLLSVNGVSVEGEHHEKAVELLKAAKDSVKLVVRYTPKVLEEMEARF

[19] = biological target: Inadl_8, Q8NI35
Chain of Inadl_8, Q8NI35 (Q8NI35 1425-1530): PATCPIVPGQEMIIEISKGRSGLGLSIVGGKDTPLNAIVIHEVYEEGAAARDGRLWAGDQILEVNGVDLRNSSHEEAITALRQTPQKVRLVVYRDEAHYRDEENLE

[20] = biological target: T6, RADIL, Q96JH8
T6 sequence (Q96JH8 971-1071, limits assumed, looked up): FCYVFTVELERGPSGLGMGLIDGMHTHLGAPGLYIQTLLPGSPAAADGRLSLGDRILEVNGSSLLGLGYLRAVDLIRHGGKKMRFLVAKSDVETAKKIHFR

[21] = biological target: T7, MPP2, Q14168
T7 sequence (Q14168 180-250, limits assumed, looked up): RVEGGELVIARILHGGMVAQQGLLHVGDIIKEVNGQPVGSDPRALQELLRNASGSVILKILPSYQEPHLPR

[22] = biological target: LIMK2, P53671
Chain of LIMK2, P53671 (P53671 143-248): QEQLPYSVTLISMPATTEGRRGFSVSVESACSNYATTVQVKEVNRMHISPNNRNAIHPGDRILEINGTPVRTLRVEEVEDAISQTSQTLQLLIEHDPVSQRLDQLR

[23] = biological target: GRIP2_6, Q9C0E4
Chain of GRIP2_6, Q9C0E4 (Q9C0E4 648-740): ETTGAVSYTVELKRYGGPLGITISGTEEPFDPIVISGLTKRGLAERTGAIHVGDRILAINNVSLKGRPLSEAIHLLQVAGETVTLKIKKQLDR

[24] = biological target: T8, PDZRN3_1, Q9UPQ7
T8 sequence (Q9UPQ7 244-349, limits assumed, looked up): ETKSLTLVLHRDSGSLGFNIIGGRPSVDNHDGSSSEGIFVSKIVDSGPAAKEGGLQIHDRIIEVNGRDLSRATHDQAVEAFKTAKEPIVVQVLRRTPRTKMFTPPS

[25] = biological target: ARHGEF12, Q9NZN5-2
Chain of ARHGEF12, Q9NZN5-2 (Q9NZN5 other isoform, or with tags, fused parts or gaps): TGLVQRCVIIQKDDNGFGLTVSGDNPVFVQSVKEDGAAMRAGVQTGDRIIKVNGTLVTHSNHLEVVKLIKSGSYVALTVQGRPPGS

[26] = biological target: T9, PARD3B_1, Q8TEW8
T9 sequence (Q8TEW8 196-299, limits assumed, looked up): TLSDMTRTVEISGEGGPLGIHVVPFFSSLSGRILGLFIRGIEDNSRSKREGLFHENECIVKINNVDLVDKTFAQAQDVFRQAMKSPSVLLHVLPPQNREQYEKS

[27] = biological target: GIPC2, Q8TF65
Chain of GIPC2, Q8TF65 (Q8TF65 112-203): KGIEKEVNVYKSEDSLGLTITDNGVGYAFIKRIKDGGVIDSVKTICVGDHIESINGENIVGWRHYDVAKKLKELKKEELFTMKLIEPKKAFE

[28] = biological target: SNX27, Q96L92
[29] = biological target: Inadl_3, Q8NI35
Chain of Inadl_3, Q8NI35 (Q8NI35 359-469): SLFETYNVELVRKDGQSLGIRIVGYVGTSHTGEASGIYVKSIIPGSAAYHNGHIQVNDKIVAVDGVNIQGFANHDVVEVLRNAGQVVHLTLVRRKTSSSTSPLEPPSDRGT

[30] = plain residues with an end cap or a label only (N-terminal biotin on a linker: ahx)
[31] = plain residues with an end cap or a label only (N-terminal biotin on a linker: ado-ado)
[32] = plain residues with an end cap or a label only (N-terminal biotin on a linker: (peg)3)

Chain of SCRIB_1, Q14160 (Q14160 718-814): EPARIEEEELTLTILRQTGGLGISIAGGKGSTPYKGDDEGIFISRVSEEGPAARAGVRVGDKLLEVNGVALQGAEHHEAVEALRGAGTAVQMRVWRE

QPRTWLQSPV [RTKN, Q9BST9] was tested, and the pKd [1, 30] was 3.69, the pKd [2, 30] was “below the threshold” and the pKd [3, 30] was “below the threshold”. For the same binder, the pKd [4, 30] was 4.71, the pKd [5, 30] was 4.13 and the pKd [6, 30] was “below the threshold”. For the same binder, the pKd [7, 30] was “below the threshold”, the pKd [8, 30] was 4.33 and the pKd [9, 30] was 4.19. The pKd [10, 30] was 3.78, the pKd [11, 30] was 3.9 and the pKd [12, 30] was “below the threshold”. For the same binder, the pKd [13, 30] was “below the threshold”, the pKd [14, 30] was “below the threshold” and the pKd [15, 30] was “below the threshold”. The pKd [16, 30] was “below the threshold”, the pKd [17, 30] was “below the threshold” and the pKd [18, 30] was “below the threshold”. The pKd [19, 30] was 4.89, the pKd [20, 30] was “below the threshold” and the pKd [21, 30] was “below the threshold”. The pKd [22, 30] was “below the threshold”, the pKd [23, 30] was “below the threshold” and the pKd [24, 30] was “below the threshold”. For the same binder, the pKd [25, 30] was 3.99, the pKd [26, 30] was “below the threshold” and the pKd [27, 30] was “below the threshold”. For the same binder, the pKd [28, 30] was 4.31 and the pKd [29, 30] was “below the threshold”.

Work on EIPAQSPTCV [FZD10, Q9ULW2] yielded a pKd [1, 31] of 3.81, a pKd [2, 31] of 4.12 and a pKd [3, 31] of 3.56. It also gave a pKd [4, 31] of 3.89, a pKd [5, 31] of 4.01 and a pKd [6, 31] of 3.49. For the same binder, the pKd [7, 31] was 3.55, the pKd [8, 31] was 3.67 and the pKd [9, 31] was 4.01. The pKd [10, 31] was 3.77, the pKd [11, 31] was 4.22 and the pKd [12, 31] was 3.91. It also gave a pKd [13, 31] of 3.78, a pKd [14, 31] of 3.85 and a pKd [15, 31] of 3.56. For the same binder, the pKd [16, 31] was “below the threshold”, the pKd [17, 31] was 3.79 and the pKd [18, 31] was 3.48. For the same binder, the pKd [19, 31] was 4.35, the pKd [20, 31] was 4.47 and the pKd [21, 31] was “below the threshold”. The pKd [22, 31] was “below the threshold”, the pKd [23, 31] was 3.74 and the pKd [24, 31] was “below the threshold”. The pKd [25, 31] was 3.91, the pKd [26, 31] was “below the threshold” and the pKd [27, 31] was 3.74. The pKd [28, 31] was 4.08 and the pKd [29, 31] was 3.62.

In the case of RYEDTTLVEDTVL [WNV-NS5, Q9Q6P4], the pKd [1, 32] is reported as 3.95, the pKd [2, 32] is reported as 5.01 and the pKd [3, 32] is reported as “below the threshold”. The pKd [4, 32] was “below the threshold”, the pKd [5, 32] was 5.64 and the pKd [6, 32] was 3.88. For the same binder, the pKd [7, 32] was “below the threshold”, the pKd [8, 32] was “below the threshold” and the pKd [9, 32] was “below the threshold”. It also gave a pKd [10, 32] of 4.37, a pKd [11, 32] of 3.9 and a pKd [12, 32] of 4.17. The pKd [13, 32] was “below the threshold”, the pKd [14, 32] was 3.78 and the pKd [15, 32] was “below the threshold”. For the same binder, the pKd [16, 32] was “below the threshold”, the pKd [17, 32] was 3.62 and the pKd [18, 32] was 3.59. The pKd [19, 32] was “below the threshold”, the pKd [20, 32] was “below the threshold” and the pKd [21, 32] was “below the threshold”. The pKd [22, 32] was “below the threshold”, the pKd [23, 32] was “below the threshold” and the pKd [24, 32] was 3.61. For the same binder, the pKd [25, 32] was 3.92, the pKd [26, 32] was 4.66 and the pKd [27, 32] was “below the threshold”. The pKd [28, 32] was 5.38 and the pKd [29, 32] was 3.82.

For DPAESMESLV [PTPRG, P23470], the pKd [1, 31] was “below the threshold”, the pKd [2, 31] was “below the threshold” and the pKd [3, 31] was “below the threshold”. For the same binder, the pKd [4, 31] was 4.68, the pKd [5, 31] was 4.69 and the pKd [6, 31] was “below the threshold”. The pKd [7, 31] was “below the threshold”, the pKd [8, 31] was 5.32 and the pKd [9, 31] was 4.59. For the same binder, the pKd [10, 31] was 4.61, the pKd [11, 31] was 3.62 and the pKd [12, 31] was “below the threshold”. The pKd [13, 31] was “below the threshold”, the pKd [14, 31] was 4.16 and the pKd [15, 31] was “below the threshold”. For the same binder, the pKd [16, 31] was “below the threshold”, the pKd [17, 31] was “below the threshold” and the pKd [18, 31] was 3.7. For the same binder, the pKd [19, 31] was “below the threshold”, the pKd [20, 31] was 4.23 and the pKd [21, 31] was “below the threshold”. The pKd [22, 31] was “below the threshold”, the pKd [23, 31] was “below the threshold” and the pKd [24, 31] was 3.96. For the same binder, the pKd [25, 31] was “below the threshold”, the pKd [26, 31] was “below the threshold” and the pKd [27, 31] was 3.95. For the same binder, the pKd [28, 31] was 5.42 and the pKd [29, 31] was 4.08.
